Our source for the Kd values is publication PMC8913300 (2022).

No end group written: not given here.

In assay [1] the target is DnaJB4 (human, UniProt Q9UDY4 1-337). Kind of assay: FP.
The target in assay [2] is T1, C terminus of Hsc70 interacting protein (CHIP) (human, UniProt Q9UNE7 1-303).
T1 chain: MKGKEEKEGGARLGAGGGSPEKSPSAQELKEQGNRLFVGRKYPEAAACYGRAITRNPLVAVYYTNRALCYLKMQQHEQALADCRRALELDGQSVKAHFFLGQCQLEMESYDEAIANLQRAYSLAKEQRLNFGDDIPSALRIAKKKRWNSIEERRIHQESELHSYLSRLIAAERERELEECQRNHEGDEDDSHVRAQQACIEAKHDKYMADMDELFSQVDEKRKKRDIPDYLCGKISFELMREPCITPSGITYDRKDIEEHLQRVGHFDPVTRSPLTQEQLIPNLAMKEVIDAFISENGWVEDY
The assay is described as follows: FP.

Chain of DnaJB4 (Q9UDY4 whole entry): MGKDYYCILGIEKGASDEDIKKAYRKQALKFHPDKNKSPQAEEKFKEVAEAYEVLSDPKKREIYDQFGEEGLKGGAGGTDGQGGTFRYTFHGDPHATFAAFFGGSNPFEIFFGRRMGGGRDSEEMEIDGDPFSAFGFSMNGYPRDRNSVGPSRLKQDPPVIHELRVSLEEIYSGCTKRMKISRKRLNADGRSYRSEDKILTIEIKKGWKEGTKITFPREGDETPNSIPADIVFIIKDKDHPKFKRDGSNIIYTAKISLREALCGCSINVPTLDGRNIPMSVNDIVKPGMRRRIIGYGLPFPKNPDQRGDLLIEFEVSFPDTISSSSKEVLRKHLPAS

As for GSGPEIEEVD-OH (not fully specified (N-terminus); printed as FITC-Ahx-GSGPEIEEVD) [Hsp72 T636E tracer FITC-Ahx-GSGPEIEEVD], the equilibrium dissociation constant (Kd) (usually the equilibrium constant for the complex coming apart) in assay [1] is 1760 nM; in assay [2], 5040 nM.

In assay [2], GSGPTIEEVD-OH (not fully specified (N-terminus); printed as FITC-Ahx-GSGPTIEEVD) [Hsp72 tracer FITC-Ahx-GSGPTIEEVD] registered a Kd of 1050 nM. In other words, the single-digit micromolar range.
